Test results: PMC7401798

How the values were obtained:
[1] = target: Taxol-stabilized microtubules (UniProt P02550); test: co-sedimentation
HIS-TAN1-GFP (maize) = test: pull-down
HIS-TAN1-GFP (maize), sequence (C0PM98 whole entry): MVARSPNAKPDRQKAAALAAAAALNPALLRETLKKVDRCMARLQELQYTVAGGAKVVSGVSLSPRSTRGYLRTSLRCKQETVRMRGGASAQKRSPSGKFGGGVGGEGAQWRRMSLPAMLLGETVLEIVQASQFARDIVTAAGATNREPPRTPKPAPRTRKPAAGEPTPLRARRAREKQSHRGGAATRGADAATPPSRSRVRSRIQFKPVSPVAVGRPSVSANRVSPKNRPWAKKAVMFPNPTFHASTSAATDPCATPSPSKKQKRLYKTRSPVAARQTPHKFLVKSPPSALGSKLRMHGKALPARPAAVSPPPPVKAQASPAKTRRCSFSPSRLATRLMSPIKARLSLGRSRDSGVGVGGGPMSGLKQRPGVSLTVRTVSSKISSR

HIS-TAN1-GFP (natural protein), sequence (C0PM98 whole entry): as above
Atto488-tagged HIS-TAN1-GFP (natural protein), sequence (C0PM98 whole entry): as above

Substance: 6xHIS-tagged ZmTAN1 (TANGLED1) (natural protein)
- K0.5 [1]: 1.08 µM

Substance: tubulin dimers (from UniProt P02550 1-451) (complex)
- stoichiometry N (tubulin dimers per HIS-TAN1-GFP) (HIS-TAN1-GFP (maize)): 2

Substance: Atto488-tagged HIS-TAN1-GFP (natural protein)
- apparent affinity [1]: 0.05 µM

Substance: HIS-TAN1-GFP (natural protein)
- apparent affinity [1]: 0.595 µM
